In article PMC6082870:

B1: lysyl hydroxylase 3 (LH3/PLOD3): T672N (protein)
parent chain: MTSSGPGPRFLLLLPLLLPPAASASDRPRGRDPVNPEKLLVITVATAETEGYLRFLRSAEFFNYTVRTLGLGEEWRGGDVARTVGGGQKVRWLKKEMEKYADREDMIIMFVDSYDVILAGSPTELLKKFVQSGSRLLFSAESFCWPEWGLAEQYPEVGTGKRFLNSGGFIGFATTIHQIVRQWKYKDDDDDQLFYTRLYLDPGLREKLSLNLDHKSRIFQNLNGALDEVVLKFDRNRVRIRNVAYDTLPIVVHGNGPTKLQLNYLGNYVPNGWTPEGGCGFCNQDRRTLPGGQPPPRVFLAVFVEQPTPFLPRFLQRLLLLDYPPDRVTLFLHNNEVFHEPHIADSWPQLQDHFSAVKLVGPEEALSPGEARDMAMDLCRQDPECEFYFSLDADAVLTNLQTLRILIEENRKVIAPMLSRHGKLWSNFWGALSPDEYYARSEDYVELVQRKRVGVWNVPYISQAYVIRGDTLRMELPQRDVFSGSDTDPDMAFCKSFRDKGIFLHLSNQHEFGRLLATSRYDTEHLHPDLWQIFDNPVDWKEQYIHENYSRALEGEGIVEQPCPDVYWFPLLSEQMCDELVAEMEHYGQWSGGRHEDSRLAGGYENVPTVDIHMKQVGYEDQWLQLLRTYVGPMTESLFPGYHTKARAVMNFVVRYRPDEQPSLRPHHDSSTFTLNVALNHKGLDYEGGGCRFLRYDCVISSPRKGWALLHPGRLTHYHEGLPTTWGTRYIMVSFVDP
B2: lysyl hydroxylase 3 (LH3/PLOD3): W148N-L150T (protein)
parent chain: MTSSGPGPRFLLLLPLLLPPAASASDRPRGRDPVNPEKLLVITVATAETEGYLRFLRSAEFFNYTVRTLGLGEEWRGGDVARTVGGGQKVRWLKKEMEKYADREDMIIMFVDSYDVILAGSPTELLKKFVQSGSRLLFSAESFCWPEWGLAEQYPEVGTGKRFLNSGGFIGFATTIHQIVRQWKYKDDDDDQLFYTRLYLDPGLREKLSLNLDHKSRIFQNLNGALDEVVLKFDRNRVRIRNVAYDTLPIVVHGNGPTKLQLNYLGNYVPNGWTPEGGCGFCNQDRRTLPGGQPPPRVFLAVFVEQPTPFLPRFLQRLLLLDYPPDRVTLFLHNNEVFHEPHIADSWPQLQDHFSAVKLVGPEEALSPGEARDMAMDLCRQDPECEFYFSLDADAVLTNLQTLRILIEENRKVIAPMLSRHGKLWSNFWGALSPDEYYARSEDYVELVQRKRVGVWNVPYISQAYVIRGDTLRMELPQRDVFSGSDTDPDMAFCKSFRDKGIFLHLSNQHEFGRLLATSRYDTEHLHPDLWQIFDNPVDWKEQYIHENYSRALEGEGIVEQPCPDVYWFPLLSEQMCDELVAEMEHYGQWSGGRHEDSRLAGGYENVPTVDIHMKQVGYEDQWLQLLRTYVGPMTESLFPGYHTKARAVMNFVVRYRPDEQPSLRPHHDSSTFTLNVALNHKGLDYEGGGCRFLRYDCVISSPRKGWALLHPGRLTHYHEGLPTTWGTRYIMVSFVDP
B3: lysyl hydroxylase 3 (LH3/PLOD3): R714N (protein)
parent chain: MTSSGPGPRFLLLLPLLLPPAASASDRPRGRDPVNPEKLLVITVATAETEGYLRFLRSAEFFNYTVRTLGLGEEWRGGDVARTVGGGQKVRWLKKEMEKYADREDMIIMFVDSYDVILAGSPTELLKKFVQSGSRLLFSAESFCWPEWGLAEQYPEVGTGKRFLNSGGFIGFATTIHQIVRQWKYKDDDDDQLFYTRLYLDPGLREKLSLNLDHKSRIFQNLNGALDEVVLKFDRNRVRIRNVAYDTLPIVVHGNGPTKLQLNYLGNYVPNGWTPEGGCGFCNQDRRTLPGGQPPPRVFLAVFVEQPTPFLPRFLQRLLLLDYPPDRVTLFLHNNEVFHEPHIADSWPQLQDHFSAVKLVGPEEALSPGEARDMAMDLCRQDPECEFYFSLDADAVLTNLQTLRILIEENRKVIAPMLSRHGKLWSNFWGALSPDEYYARSEDYVELVQRKRVGVWNVPYISQAYVIRGDTLRMELPQRDVFSGSDTDPDMAFCKSFRDKGIFLHLSNQHEFGRLLATSRYDTEHLHPDLWQIFDNPVDWKEQYIHENYSRALEGEGIVEQPCPDVYWFPLLSEQMCDELVAEMEHYGQWSGGRHEDSRLAGGYENVPTVDIHMKQVGYEDQWLQLLRTYVGPMTESLFPGYHTKARAVMNFVVRYRPDEQPSLRPHHDSSTFTLNVALNHKGLDYEGGGCRFLRYDCVISSPRKGWALLHPGRLTHYHEGLPTTWGTRYIMVSFVDP

Assays:
[1] = analytical size exclusion chromatography; settings: glycan gained; control: wild type
[2] = lysyl hydroxylase activity, Succinate-Glo luminescence; settings: glycan gained; control: wild type

Protein	oligomerisation [1]	enzymatic_activity [2]
B1	decreases	–
B2	no change	no change
B3	decreases	–
